Experimental data reported in patent US20130115216A1.

Legend:
[1] = target: HLA-A2 (HLA-A*0201) (human); test: assembly assay, HLA-A2 recovery from TAP-deficient cell lysate
[2] = target: HLA-A2 (HLA-A*0201) (human); test: assembly assay, HLA-A2 recovery from T2 cell lysate

C1 (HIV-1 pol476-484) (peptide; other documents disagree on this pair)
C50 [1]: 0.2 µM | C50 [2]: 0.7 µM
